In US20140087995A1 (published 2014):
Numbered stars: 1 amine (or outer) side, 2 acyl side, 3 side chain; on linkers, the order of the positions; unused ones are H or OH. Bridge positions count the residues as written; N and C are the ends. Side chains are listed from the residue outwards. Ends that are not written are not given here. * marks the point of attachment. C20 diacid = O=C(O)CCCCCCCCCCCCCCCCCCC(=O)*; γGlu = O=C(O)[C@H](CCC(=O)[*:2])N[*:1]; AEEA = NCCOCCOCC(=O)O

Assays:
rat calcitonin receptor [1] = biological target: T1, rat calcitonin receptor (rat, UniProt P32214 25-516); test: SPA competition vs 125I-calcitonin, membranes with rat CTR (Assay VIII)
T1 construct: whole, on cells; Membranes of BHK tk'ts 13 cells transiently transfected with the rat calcitonin receptor; also called rCTR; rat calcitonin (a) receptor
T1 sequence (looked up): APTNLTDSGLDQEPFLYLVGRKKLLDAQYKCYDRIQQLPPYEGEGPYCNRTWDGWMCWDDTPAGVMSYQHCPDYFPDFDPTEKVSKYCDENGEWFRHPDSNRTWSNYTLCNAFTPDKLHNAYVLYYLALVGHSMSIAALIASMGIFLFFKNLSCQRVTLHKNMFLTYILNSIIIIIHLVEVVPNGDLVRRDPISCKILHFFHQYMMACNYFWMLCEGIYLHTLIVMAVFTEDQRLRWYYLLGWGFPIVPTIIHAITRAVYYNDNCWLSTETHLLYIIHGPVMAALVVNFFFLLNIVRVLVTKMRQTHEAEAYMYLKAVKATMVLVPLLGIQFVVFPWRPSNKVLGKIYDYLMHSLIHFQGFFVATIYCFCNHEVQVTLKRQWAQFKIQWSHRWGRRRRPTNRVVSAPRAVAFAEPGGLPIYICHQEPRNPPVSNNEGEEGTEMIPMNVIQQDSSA

[2] = biological target: T2, rat amylin receptor (rat calcitonin receptor + rat RAMP 3) (rat, UniProt P32214 25-516; Q9JJ73 23-147); test: SPA competition vs 125I-rat amylin, membranes with rat CTR + rat RAMP3 (Assay VI)
T2 construct: whole, on cells; Membranes of BHK tk'ts 13 cells transiently transfected with the rat calcitonin receptor and rat RAMP 3; also called rAmylin-R; rat amylin 3(a) receptor
T2 sequence (looked up) 1: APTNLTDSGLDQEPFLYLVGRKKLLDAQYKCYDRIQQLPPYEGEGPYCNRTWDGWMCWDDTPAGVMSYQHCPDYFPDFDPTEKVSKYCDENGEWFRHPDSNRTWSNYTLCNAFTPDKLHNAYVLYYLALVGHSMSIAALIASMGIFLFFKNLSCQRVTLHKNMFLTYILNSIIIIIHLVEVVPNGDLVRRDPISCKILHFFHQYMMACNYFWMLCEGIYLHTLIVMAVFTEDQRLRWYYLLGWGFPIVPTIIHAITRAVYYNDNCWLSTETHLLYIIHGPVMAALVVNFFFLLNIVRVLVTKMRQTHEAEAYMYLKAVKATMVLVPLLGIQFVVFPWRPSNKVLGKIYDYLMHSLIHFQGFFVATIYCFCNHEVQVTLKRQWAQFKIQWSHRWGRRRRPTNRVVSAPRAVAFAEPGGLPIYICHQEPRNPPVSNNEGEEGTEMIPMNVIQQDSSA
T2 sequence (looked up) 2: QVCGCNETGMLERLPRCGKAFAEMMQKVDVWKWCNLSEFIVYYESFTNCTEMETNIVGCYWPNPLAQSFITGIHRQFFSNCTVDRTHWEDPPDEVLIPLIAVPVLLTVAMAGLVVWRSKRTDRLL

rat calcitonin receptor [3] = biological target: T1, rat calcitonin receptor; test: IC50 at rCTR divided by IC50 at rAmylin-R (reference)
[4] = biological target: T3, human calcitonin receptor (human, UniProt P30988 25-474); test: IC50 at hCTR divided by IC50 at hAmylin-R (reference)
T3 construct: whole, on cells; Membranes of a BHK tk'ts 13 cell line stably transfected with the human calcitonin receptor; also called hCTR; hCT
T3 sequence (looked up): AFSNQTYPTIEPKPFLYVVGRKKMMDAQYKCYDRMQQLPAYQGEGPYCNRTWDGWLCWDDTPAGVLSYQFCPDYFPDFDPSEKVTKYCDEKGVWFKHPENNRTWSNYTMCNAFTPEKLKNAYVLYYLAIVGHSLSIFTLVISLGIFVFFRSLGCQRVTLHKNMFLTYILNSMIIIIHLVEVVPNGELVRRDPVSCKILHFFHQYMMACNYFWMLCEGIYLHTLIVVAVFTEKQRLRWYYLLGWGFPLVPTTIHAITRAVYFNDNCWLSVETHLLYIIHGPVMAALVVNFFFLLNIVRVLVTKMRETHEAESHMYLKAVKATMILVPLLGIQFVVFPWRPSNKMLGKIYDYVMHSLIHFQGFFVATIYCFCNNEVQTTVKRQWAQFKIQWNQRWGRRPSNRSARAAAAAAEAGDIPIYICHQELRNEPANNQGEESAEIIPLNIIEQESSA
Outline: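 IC₅₀ values were derived by one-site competition analysis of SPA counts. Cell membranes (35 ng/μL) with SPA beads were incubated with test compounds for 120 min at 25° C in Hepes buffer, pH 7.4, containing CaCl2, MgCl₂, OA and Tween20.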

| Binder | IC50 (rat calcitonin receptor [1]) [nM] | IC50 [2] [nM] | Ratio rCT/rAmylin binding (rat calcitonin receptor [3]) | Ratio hCT/hAmylin binding [4] |
| --- | --- | --- | --- | --- |
| K([AEEA-C20 diacid])CNTATCATQRLANFLRHSSPNFGAIPSSTNVGSNTY-NH2 (disulfide 2-7; N-terminus assumed; SMILES CC[C@H](C)[C@H](NC(=O)[C@H](C)NC(=O)CNC(=O)[C@H](Cc1ccccc1)NC(=O)[C@H](CC(N)=O)NC(=O)[C@@H]1CCCN1C(=O)[C@H](CO)NC(=O)[C@H](CO)NC(=O)[C@H](Cc1c[nH]cn1)NC(=O)[C@H](CCCNC(=N)N)NC(=O)[C@H](CC(C)C)NC(=O)[C@H](Cc1ccccc1)NC(=O)[C@H](CC(N)=O)NC(=O)[C@H](C)NC(=O)[C@H](CC(C)C)NC(=O)[C@H](CCCNC(=N)N)NC(=O)[C@H](CCC(N)=O)NC(=O)[C@@H](NC(=O)[C@H](C)NC(=O)[C@@H]1CSSC[C@H](NC(=O)[C@@H](N)CCCCNC(=O)COCCOCCNC(=O)CCCCCCCCCCCCCCCCCCC(=O)O)C(=O)N[C@@H](CC(N)=O)C(=O)N[C@@H]([C@@H](C)O)C(=O)N[C@@H](C)C(=O)N[C@@H]([C@@H](C)O)C(=O)N1)[C@@H](C)O)C(=O)N1CCC[C@H]1C(=O)N[C@@H](CO)C(=O)N[C@@H](CO)C(=O)N[C@H](C(=O)N[C@@H](CC(N)=O)C(=O)N[C@H](C(=O)NCC(=O)N[C@@H](CO)C(=O)N[C@@H](CC(N)=O)C(=O)N[C@H](C(=O)N[C@@H](Cc1ccc(O)cc1)C(N)=O)[C@@H](C)O)C(C)C)[C@@H](C)O, modifications are with respect to human amylin; also called compound 43) [N^ε1-[2-[2-[2-(19-carboxynonadecanoylamino)ethoxy]ethoxy]acetyl]-[Arg17,Pro21,Pro27]-h-amylin] | 7.6 | 0.11 | 69.1 | 34.7 |
| K([γGlu-C20 diacid])RCNTATCATQRLANFLRHSSPNFGAIPSSTNVGSHTY-NH2 (disulfide 3-8; N-terminus assumed; SMILES CC[C@H](C)[C@H](NC(=O)[C@H](C)NC(=O)CNC(=O)[C@H](Cc1ccccc1)NC(=O)[C@H](CC(N)=O)NC(=O)[C@@H]1CCCN1C(=O)[C@H](CO)NC(=O)[C@H](CO)NC(=O)[C@H](Cc1c[nH]cn1)NC(=O)[C@H](CCCNC(=N)N)NC(=O)[C@H](CC(C)C)NC(=O)[C@H](Cc1ccccc1)NC(=O)[C@H](CC(N)=O)NC(=O)[C@H](C)NC(=O)[C@H](CC(C)C)NC(=O)[C@H](CCCNC(=N)N)NC(=O)[C@H](CCC(N)=O)NC(=O)[C@@H](NC(=O)[C@H](C)NC(=O)[C@@H]1CSSC[C@H](NC(=O)[C@H](CCCNC(=N)N)NC(=O)[C@@H](N)CCCCNC(=O)CC[C@H](NC(=O)CCCCCCCCCCCCCCCCCCC(=O)O)C(=O)O)C(=O)N[C@@H](CC(N)=O)C(=O)N[C@@H]([C@@H](C)O)C(=O)N[C@@H](C)C(=O)N[C@@H]([C@@H](C)O)C(=O)N1)[C@@H](C)O)C(=O)N1CCC[C@H]1C(=O)N[C@@H](CO)C(=O)N[C@@H](CO)C(=O)N[C@H](C(=O)N[C@@H](CC(N)=O)C(=O)N[C@H](C(=O)NCC(=O)N[C@@H](CO)C(=O)N[C@@H](Cc1c[nH]cn1)C(=O)N[C@H](C(=O)N[C@@H](Cc1ccc(O)cc1)C(N)=O)[C@@H](C)O)C(C)C)[C@@H](C)O, modifications are with respect to human amylin; also called compound 44) | 19.6 | 0.369 | 53.3 | 17.7 |
| {C20 diacid-γGlu}-GRCNTATCATQRLANFLRHSSPNFGAIPSSTNVGSHTY-NH2 (disulfide 3-8; SMILES CC[C@H](C)[C@H](NC(=O)[C@H](C)NC(=O)CNC(=O)[C@H](Cc1ccccc1)NC(=O)[C@H](CC(N)=O)NC(=O)[C@@H]1CCCN1C(=O)[C@H](CO)NC(=O)[C@H](CO)NC(=O)[C@H](Cc1c[nH]cn1)NC(=O)[C@H](CCCNC(=N)N)NC(=O)[C@H](CC(C)C)NC(=O)[C@H](Cc1ccccc1)NC(=O)[C@H](CC(N)=O)NC(=O)[C@H](C)NC(=O)[C@H](CC(C)C)NC(=O)[C@H](CCCNC(=N)N)NC(=O)[C@H](CCC(N)=O)NC(=O)[C@@H](NC(=O)[C@H](C)NC(=O)[C@@H]1CSSC[C@H](NC(=O)[C@H](CCCNC(=N)N)NC(=O)CNC(=O)CC[C@H](NC(=O)CCCCCCCCCCCCCCCCCCC(=O)O)C(=O)O)C(=O)N[C@@H](CC(N)=O)C(=O)N[C@@H]([C@@H](C)O)C(=O)N[C@@H](C)C(=O)N[C@@H]([C@@H](C)O)C(=O)N1)[C@@H](C)O)C(=O)N1CCC[C@H]1C(=O)N[C@@H](CO)C(=O)N[C@@H](CO)C(=O)N[C@H](C(=O)N[C@@H](CC(N)=O)C(=O)N[C@H](C(=O)NCC(=O)N[C@@H](CO)C(=O)N[C@@H](Cc1c[nH]cn1)C(=O)N[C@H](C(=O)N[C@@H](Cc1ccc(O)cc1)C(N)=O)[C@@H](C)O)C(C)C)[C@@H](C)O, modifications are with respect to human amylin; also called compound 47) | 17.1 | 0.203 | 84.3 | 44.9 |
| {C20 diacid-γGlu}-GRCNTATCATQRLANFLRHSSPNFGAIPSSTNVGSNTY-NH2 (disulfide 3-8; SMILES CC[C@H](C)[C@H](NC(=O)[C@H](C)NC(=O)CNC(=O)[C@H](Cc1ccccc1)NC(=O)[C@H](CC(N)=O)NC(=O)[C@@H]1CCCN1C(=O)[C@H](CO)NC(=O)[C@H](CO)NC(=O)[C@H](Cc1c[nH]cn1)NC(=O)[C@H](CCCNC(=N)N)NC(=O)[C@H](CC(C)C)NC(=O)[C@H](Cc1ccccc1)NC(=O)[C@H](CC(N)=O)NC(=O)[C@H](C)NC(=O)[C@H](CC(C)C)NC(=O)[C@H](CCCNC(=N)N)NC(=O)[C@H](CCC(N)=O)NC(=O)[C@@H](NC(=O)[C@H](C)NC(=O)[C@@H]1CSSC[C@H](NC(=O)[C@H](CCCNC(=N)N)NC(=O)CNC(=O)CC[C@H](NC(=O)CCCCCCCCCCCCCCCCCCC(=O)O)C(=O)O)C(=O)N[C@@H](CC(N)=O)C(=O)N[C@@H]([C@@H](C)O)C(=O)N[C@@H](C)C(=O)N[C@@H]([C@@H](C)O)C(=O)N1)[C@@H](C)O)C(=O)N1CCC[C@H]1C(=O)N[C@@H](CO)C(=O)N[C@@H](CO)C(=O)N[C@H](C(=O)N[C@@H](CC(N)=O)C(=O)N[C@H](C(=O)NCC(=O)N[C@@H](CO)C(=O)N[C@@H](CC(N)=O)C(=O)N[C@H](C(=O)N[C@@H](Cc1ccc(O)cc1)C(N)=O)[C@@H](C)O)C(C)C)[C@@H](C)O, modifications are with respect to human amylin; also called compound 46) [N^-1-[(4S)-4-carboxy-4-(19-carboxynonadecanoylamino)butanoyl]-Gly[Arg1,Arg17,Pro21,Pro27]-h-amylin] | 46.8 | 0.33 | 142 | 48.9 |
| K([AEEA-γGlu-C20 diacid])RCNTATCATQRLANFLRHSSPNFGAIPSSTNVGSHTY-NH2 (disulfide 3-8; N-terminus assumed; SMILES CC[C@H](C)[C@H](NC(=O)[C@H](C)NC(=O)CNC(=O)[C@H](Cc1ccccc1)NC(=O)[C@H](CC(N)=O)NC(=O)[C@@H]1CCCN1C(=O)[C@H](CO)NC(=O)[C@H](CO)NC(=O)[C@H](Cc1c[nH]cn1)NC(=O)[C@H](CCCNC(=N)N)NC(=O)[C@H](CC(C)C)NC(=O)[C@H](Cc1ccccc1)NC(=O)[C@H](CC(N)=O)NC(=O)[C@H](C)NC(=O)[C@H](CC(C)C)NC(=O)[C@H](CCCNC(=N)N)NC(=O)[C@H](CCC(N)=O)NC(=O)[C@@H](NC(=O)[C@H](C)NC(=O)[C@@H]1CSSC[C@H](NC(=O)[C@H](CCCNC(=N)N)NC(=O)[C@@H](N)CCCCNC(=O)COCCOCCNC(=O)CC[C@H](NC(=O)CCCCCCCCCCCCCCCCCCC(=O)O)C(=O)O)C(=O)N[C@@H](CC(N)=O)C(=O)N[C@@H]([C@@H](C)O)C(=O)N[C@@H](C)C(=O)N[C@@H]([C@@H](C)O)C(=O)N1)[C@@H](C)O)C(=O)N1CCC[C@H]1C(=O)N[C@@H](CO)C(=O)N[C@@H](CO)C(=O)N[C@H](C(=O)N[C@@H](CC(N)=O)C(=O)N[C@H](C(=O)NCC(=O)N[C@@H](CO)C(=O)N[C@@H](Cc1c[nH]cn1)C(=O)N[C@H](C(=O)N[C@@H](Cc1ccc(O)cc1)C(N)=O)[C@@H](C)O)C(C)C)[C@@H](C)O, modifications are with respect to human amylin; also called compound 45) | 41.8 | 0.623 | 67.1 | 26.8 |
